The nanobody polyreactivity screen of Harvey et al. (2022)

Test: yeast display, Sf9 membrane polyspecificity reagent, FACS + sequencing; frameworks hold sequencing errors
In short: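 Using colony PCR, genes from sorted yeast display clones were amplified, then sequenced on MiSeq at 2 × 250 and filtered by CDR length. The clones had been stained with 10% biotinylated, detergent-solubilized Sf9 membrane reagent for 1 hour at 4 °C and sorted by FACS into low and high (top ~1%) gates on anti-HA and streptavidin fluorescence. Polyreactivity labels come from the gate of origin.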

Sequence | polyreactivity (PSR sort gate)
QVQLVESGGGLVQAGGSLRLSCAASGITFRVYAMGWYRQAPGKERELVADISGTGGSTYYADSVKGRFTISRDYAKNTVYLQMNSLKPEDTAVYYCAAVYGFYYSFLQDSYGYWGQGTQVTVSS | low polyreactivity
QVQLVESGGGLDQAGGSLRLSCAASGRIVVGYAMGWYRQAPGKERELVAAINRSGSSTYYADSVKGRFTISRDNGKITVYLQMNSLKPEDTAVYYCNARSGNRYGPRYDYWGQGTQVTVSS | high polyreactivity
QVQLVESGGGLVQAGGSLRLSCAASGLTSLSYAIGWYRQAPGKERELVAAITLSGCRTYYADSVKGRFTISRDNAKNTVYLQMNSLIPEDTAVYFCAVAGYWYSYGRKYLTTFEYWGQGTQVTVSS | high polyreactivity
QDQLVESGRGLVQAGGSLRLSCAASGSTFSYYAIGWYRQAPGKERELVAAISRRGGSTYYADSVKGRFTISRDNAKNSVYLQMNSLKPEDTAVYYCNRVTYTGYDSWGQGTQVTVSS | high polyreactivity
QVQLVESGGGLVQARGSLRLSCAASGSIFQYNAMGWYRQAPGKERELVAAINGGGSTYYADSVKGRFTISRNNAKNTVYLQLTSLNPEDTAVYYCNADAMDEDWRGYWGQGTQVTVSS | low polyreactivity
QVQLVESGGGLVQAGGSLRLSCAASGFTFSLYTKGWYRQATGKERELVADISDGGITNYADSVKGRFTISRDNAKNTVYLQMHSLKPEDTAVYYCAADYQFLFFWNLFYEDYDYWGQGTQVTVSS | high polyreactivity
QVQLVESGGGLVQAGGSLRLSCAASGSIFYGNAMGWYRPAPGKERELVAGITSGVGTNYADSVKGRFTISRDNAKNTVYLQMNSLKPEDTAVYYCNARYVYWIKGHDYWGQGTQVTVSS | high polyreactivity
QVQLVESGGGLVQAGGSLRLSCAASGRTLFGNAMGWYRQAPAKERELVAAISRRGGSTSYADSVKGRFTISRDNAKNTVYLQMNSLKPEDTAVYYCASAQGKYTGTHYPYDYWGQGTQVTVSS | low polyreactivity
QVQLVESGGGLVQAGGSLRLSCAASGRTFSYNAMGWYRQAPGKERELVAAISYDGGRTYYADSVKGRFTISRDNAKNTVYLQMNSLKPEDTAVYYCAAYPYRGPHPWTIGDYWGQGTQVTVSS | low polyreactivity
QVQLVESGGGLVQAGGSLRLICAASGSIFISYAMGWYRQAPGKERELVAAISSGGSTNYADSVKGRFTISRDNAKNTVYLQMNSLKPEDTAVYYCAADGWLWSFTGDGWWFDYWGQGTQVTVSS | low polyreactivity
QVQLVESGGGLVQAGGSLRLSCAASGRTFGGNAMGWYRQAPGKERELVAAITGRGGSTFYADSVKGRFTISRDNAKNTVYLQMNSLKPEDTAVYYCAKQFKRGYGYDYWGQGTQVTVSS | low polyreactivity
QVQLVESGGGLDQAGGSHRLSCAASGFTFSGYAMGWYRQAPGTESELVAAMTRRGGSTYYADSVKGRFTISRDNAKNTVYLHLNSLKPEDTAVYYCAADSGYPWELDYWGQGTQVTVSS | low polyreactivity
QVQLVESGGGLVQAGGSLRLSWAASGITFVRYAMGWYRQAPGKEREFVAAINSIVGRTYYADSVKGRFTISRDNAKNTVYLQMNSLKPEDTAVYYCDADSNVRYGMDYWGQGTQVTVSS | low polyreactivity
QVQLVESGGGLVQAGGSLRLSCAASGRIFSLYAMGWYRQAPGKERELVAAISWSGGTTYDADSVKGRFTISRDNAKNTVYLQMNSLKPEDTAVYYCAAQYIGKKRFNYWGQGTQVTVSS | high polyreactivity
QVQLVESGGGLVQAGGSLRLSCAASGSTFDAYDMGWYRQAPGTERELVADINWSGGITYYADSVKGRFRISRDNAKNTVYLQMNSLKPEDTAVYYCNADASFYSRVNYWGQGTQVTVSS | high polyreactivity
QDQLVESGGGLVQSGGSLRLSCAASGSTFYYYAMGWYRQAPGKERELVAAITSSTGRTYYADSVKGRFTISRDNAKYTVYLQMNSLKPEDTAVYYCITRRGSLSGLYVYSIQGYDYWGQGTQVTVSS | low polyreactivity
QVQLVESGAGLVQAGGSLRLSCAASGSIFRVYAMGWYRQAPGKERELVAAISQSADSTYYADSVKGRFTILRDNAKYTVYLQMNSLKPEDTAVYYCAAEYPYIYRFDYWGQGTQVTVSS | low polyreactivity
QVQLVESGGGLVQAGGSLRLSCAASGRTFRWYPMGWYRQAPGKERELVAAINPGGSTNYADSVKGRFTISRDNANNTVDLQMNSLKPEDSAVYYCNAAGYDALTQNYYWGQGTQVTVSS | low polyreactivity
QVQLVESGGGLVQAGGSLRLSCAASGSTFNRYALGWYRQAPGKEREFVAAISTRGGSTHYADSVKGRFTISRDNAKNTVYLQMNSLKPEDTAVYYCNARGYYSVPSNTGIRYYRFDYWGQGTQVTVSS | low polyreactivity
QVQLEESGGCLVQAGGSLRLICAASGSTFDANAMGWYRQAPGKERELVATISDGGSTNYADSVKGRFTISRDNAKNTVYLQMNSLKPEDTSVYYCAALWYYGGKSACPGGGYWGQGTQVTVSS | low polyreactivity
QVQHVESGGGLVQAGGRLSLICSASGGNIKFNAMGWYRQAPGKERELVAAITDGGSTYYADSVKGRFTISRDNAKNTVYLEMNSLKAEDTAVYYCNAEGVSLYGYDSGVDSGEDYWGQGTQVTVSS | low polyreactivity
QVQLVESGGGLVQAGGSLRLSCAASGFTFYYYAMGWYRQATGKERELVAAISSTGGSTYYADSVKGRFTISRDNAKNTVYLQMNSVKQEDSAVYYCNAAGYRYPGDYDYWGQGTQVTVSS | high polyreactivity
QVQLVESGGGLVQAGGSLRLSCAASGLIFGYYAMGWYRQAPGKERELVAAISWSGGRTYYADSVKGRFTISRDNAKNTVYLQMNSLKPEDTAVYYCAADTYPYIGGYYWGQVTQVTVSS | high polyreactivity
QVQLVESAGGLVQAGGSLRLSCAASGYIFVPYAMGWYRQAPGKERELVASITWSGGSTYYADSVKGRFTISRDNAKNTVYLQMNSLKPEDTAVYYCAAANYTYASRWYDYWGQGTQVTVSS | low polyreactivity
QDQLVESGGGLVQAGGSLRLTSAASGRIFTIYAMGWYRQPPGKDRELVAAISDRGTRTYYADSVKGRFTISRDIAKNTVYLQMNSLKPEDTAVNYCSTDALYTYGYDYWGQGTQVTVSS | low polyreactivity
QVQLVESGGGLVQAGGSLRLSCAASGSIFSLYAMGWYRQAPGKEWELVAAISRGGSTNYADSVKGRFTISRDNAKNTVYLQMNSLKPEDTAVYYCNAGFGVRRKHITFYTWYDYWGQGTQVTVSS | low polyreactivity
QVQLGESGGGLVQAGGSLRISCAASGSILIANAMGWYRQAPGKERELVAPISRSGSTTYYADSVKGRFTISRDNAKNTVYLQMNSLKPEDTAVYYCNARYSLHSYYWFIYDSWGQGTQVTGSS | low polyreactivity
QVQLVESGGGLVQAGGSLRLSCAASGLIFYVYAMGWYRQAPGKERELVATISSSGGSTYYADSVKGRFTISRDNAKNTVYLQMNSLKPEDTAVYYCAARWSHYRTGWGDTSYHYYYWGQGTQVTVSS | high polyreactivity
QVQLVESGGDLVQAGASLRLSCASSGRTFRHNALGRYRQAPGKERYLVATISNRGGTTYYADSVKGRFTISRDNAKNTVYLQMNSLKPEDTAVYYCAARVGVLGYVRYGYWGQGTQVTVSS | low polyreactivity
QVQLVESGGGLVQAGGSLRLSCAASGYIWYNAMRWYRQAPGKERELVAAISWGGGTTYYADSVKGRFTISRDNAKNTVYLQMNSLKPEDTAVYYCAAVDAVGPTSHAMYYWGQGTQVTVSS | low polyreactivity
